Results taken from patent US9766250B2, “Method for detecting protein-protein interaction” (MEDICAL & BIOLOGICAL LABORATORIES CO., LTD., priority 2011, dated 2017).

B1: DsRed2: fluorescent protein capable of homotetramerization, SEQ ID NO: 153 (protein)
chain: MASSENVITEFMRFKVRMEGTVNGHEFEIEGEGEGRPYEGHNTVKLKVTKGGPLPFAWDILSPQFQYGSKVYVKHPADIPDYKKLSFPEGFKWERVMNFEDGGVATVTQDSSLQDGCFIYKVKFIGVNFPSDGPVMQKKTMGWEASTERLYPRDGVLKGETHKALKLKDGGHYLVEFKSIYMAKKPVQLPGYYYVDAKLDITSHNEDYTIVEQYERTEGRHHLFL
modifications: Synthetic sequence DsRed2
B2: monomeric Kikume Green-Red1 (protein)
chain: MVSVITSEMKIELRMEGSVNGHKFVITGKGSGRPYEGTQTVDLTVIEGGPLPFAFDILTTAFHYGNRVFVEYPEEIVDYFKQSFPEGYSWERSMSYEDGGICLATNNITMKKDGSNTFVNEIRFDGTNFPANGPVMQRKTVKWEPSTEKMYVRDGVLKGDVEMALLLEGGGHYRCDFRTTYKAKKVVQLPDYHYVDHQMEITSHDKDYNKVKAYEHAKAYSGTYRGAKYEFEA
modifications: Synthetic sequence mKikGR1
B3: COR5: fluorescent protein capable of homotetramerization, SEQ ID NO: 172 (protein)
chain: MALSKHGLTKNMTTKYRMEGCVDGHKFVITGDGIGDPFEGKQTSIDLCVVEGGPLPFSEDILSTVFDYGNRVFTKYPQDLVDYFKNSCPAGYTWQRSFLFEDGAVCTASADIRVSVEENCFYHESKFHGVNFPADGPVMKKMTTNWEPSCEKITPILNEGILKGDVTMFLLLKDGGRYRCQFDTVYKAKADAKDMPEMHFIQHELTREDRSDAKHQKWRLVESAIAYRSTPP
modifications: Synthetic sequence COR5

target: T1, mTOR(FRB) and FKBP12 interaction (Homo sapiens, UniProt P42345+P62942); test: Degree of fluorescent focus (assembly) formation after rapamycin, fluorescent proteins fused to mTOR(FRB) (Example 8, Table 1); format: cell-based; settings: fluorescent protein fused to mTOR(FRB), with FKBP12-DGKd(SAM)
T1 construct: region having the 2025th to 2114th amino acids of the mTOR protein; expressed in transfected cells; host or cells: HeLaS3; 293T for some combinations with FKBP12-Tankyrase(SAM)
T1 sequence (P42345 2025-2114): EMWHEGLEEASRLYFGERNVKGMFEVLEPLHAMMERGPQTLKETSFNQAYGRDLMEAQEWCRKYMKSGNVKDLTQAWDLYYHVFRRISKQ
T1 sequence (P62942 whole entry, the tested form may be a part): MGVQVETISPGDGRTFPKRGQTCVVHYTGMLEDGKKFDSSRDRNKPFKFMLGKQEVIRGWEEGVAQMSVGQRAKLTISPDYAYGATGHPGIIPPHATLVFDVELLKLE
Method: Note that plasmid DNAs encoding fusion proteins composed of mTOR(FRB) and the corresponding fluorescent proteins were prepared as appropriate by the same method as that described in Example 2. Moreover, regarding the combinations of FKBP12-Tankyrase(SAM) with mKO2, mKeima, mMiCy1, mKO1, MiCy1, and TGuv, the test was conducted by introducing the genes into 293T cells. Specifically, the 293T cells were cultured in DMEM High glucose (manufactured by SIGMA ALDRICH CO.) containing 10% FBS (manufactured by Equitech-Bio Inc.). Moreover, the 293T cells were seeded onto an 8-well chamber (manufactured by Nunc A/S) 6 hours before the plasmid DNAs were introduced. Further, at the time of the transfection, 200 ng of the plasmid DNA encoding FKBP12-Tankyrase(SAM) and 200 ng of one of the plasmid DNAs encoding fusion proteins composed of the fluorescent proteins and mTOR(FRB) were diluted with 30 μl of OptiMEM (manufactured by Life Technologies Corporation), and 1.2 μl of TurboFect Transfection Reagent (manufactured by Thermo Fisher Scientific Inc.) was added thereto and stirred. Then, the resultant was further mixed with 300 μl of the culture solution, subsequently added to the 293T cells, and observed 48 hours later.

Molecule	degree of fluorescent focus formation, DGKd (SAM)
B1	+++ (fluorescent foci were observed in 50% or more of the HeLaS3 cells)
B2	+++ (fluorescent foci were observed in 50% or more of the HeLaS3 cells)
B3	+++ (fluorescent foci were observed in 50% or more of the HeLaS3 cells)

same assay, conditions: fluorescent protein fused to mTOR(FRB), with FKBP12-TEL(SAM)

Molecule	degree of fluorescent focus formation, TEL (SAM)
B1	+++ (fluorescent foci were observed in 50% or more of the HeLaS3 cells)
B2	+++ (fluorescent foci were observed in 50% or more of the HeLaS3 cells)
B3	+++ (fluorescent foci were observed in 50% or more of the HeLaS3 cells)

same assay, conditions: fluorescent protein fused to mTOR(FRB), with FKBP12-Tankyrase(SAM), some combinations in 293T cells

Molecule	degree of fluorescent focus formation, Tankyrase (SAM)
B1	+++ (fluorescent foci were observed in 50% or more of the HeLaS3 cells)
B2	+++ (fluorescent foci were observed in 50% or more of the HeLaS3 cells)
B3	+++ (fluorescent foci were observed in 50% or more of the HeLaS3 cells)

same assay, conditions: fluorescent protein fused to mTOR(FRB), with p62(PB1)-FKBP12

Molecule	degree of fluorescent focus formation, P62 (PB1)
B1	+++ (fluorescent foci were observed in 50% or more of the HeLaS3 cells)
B2	+++ (fluorescent foci were observed in 50% or more of the HeLaS3 cells)
B3	+++ (fluorescent foci were observed in 50% or more of the HeLaS3 cells)

target: T1, mTOR(FRB) and FKBP12 interaction; test: Degree of fluorescent focus (assembly) formation after rapamycin with TFG(PB1) (Example 9, Table 2); format: cell-based; settings: fluorescent protein fused to mTOR(FRB), KO1 and dAG (AB) in 293T cells

Molecule	degree of fluorescent focus formation, TFG (PB1)
B1	++ (fluorescent foci were observed in 50% or less of the HeLaS3 cells)
B2	++ (fluorescent foci were observed in 50% or less of the HeLaS3 cells)
B3	++ (fluorescent foci were observed in 50% or less of the HeLaS3 cells)
